US20130302346A1 (LEXICON PHARMACEUTICALS, published 2013)

B1: MAb 1.802 (antibody, V domains shown)
VH: EVQLVESGGGLVKPGGSLKLSCAASGFTFSDYGMHWFRQAPEKGLEWVAYISSGSRTVYYADTVKGRFTISRDNAKNTLSLQMTSLRSEDTAMYYCARKHYNGGYFDVWGTGTTVTVSS
VL: DIVLTQSPASLAVSLGQRATISCRASKIVSTSGYSYMHWYQQKPGQPPKLLIYLASNLESGVPARFSGSGSGTDFTLNIHPVEEEDAATYYCQHSRELPPTFGSGTKLEIKR
notes: Mouse monoclonal antibody from Campaign 1 (raised against human NOTUM), IgG1
B2: MAb 1.815 (antibody, IgG1, V domains shown)
VH: DVQLLESGGGLVQPGGSRKLSCAASGFTFSDFGMHWVRQAPEKGLEWVAYSSSGGTTVYYADTVKGRLTLSRDNSKNTLFLEMTSLRSEDTAMYYCARASYDGGYFDCWGQGTSLTVSS
VL: DIVLTQSPASLAVSLGQRATISCRASKSVSTSGYSYIHWYQQKPGQPPKLLIYLASDLESGVPARFSGSGSGAAFTLNIHPVEEEDAATYYCHHSRELPFTFGSGTKLEIKR
notes: Mouse monoclonal antibody from Campaign 1, IgG1
B3: MAb 1.846 (antibody, IgG2b, V domains shown)
VH: EVQLVESGGDLVKPGGSLKLSCAASGFTFSDYGMHWLRQAPEKGLEWVAYISSGSTTLSYANTMKGRFTISRDNAKKTLSLQMTSLRSEDTAIYYCARKNYNGGYFDVWGTGTTVTVSS
VL: DIVLTQSPASLVVSLGQRATISCRASKSVSESGYSYMHWYQQKPGQPPKLLIYLASNLESGVPARFSGSGSGTDFTLNIHPVEEGDATTYYCQHSRVLPPTFGSGTKLEIKR
notes: Mouse monoclonal antibody from Campaign 1, IgG2b

Experiments:
[1] = biological target: T1, Human NOTUM (human, UniProt Q6P988 20-496); assay: Biacore 3000
T1 construct: also called human notum pectinacetylesterase; recombinant human NOTUM
T1 sequence: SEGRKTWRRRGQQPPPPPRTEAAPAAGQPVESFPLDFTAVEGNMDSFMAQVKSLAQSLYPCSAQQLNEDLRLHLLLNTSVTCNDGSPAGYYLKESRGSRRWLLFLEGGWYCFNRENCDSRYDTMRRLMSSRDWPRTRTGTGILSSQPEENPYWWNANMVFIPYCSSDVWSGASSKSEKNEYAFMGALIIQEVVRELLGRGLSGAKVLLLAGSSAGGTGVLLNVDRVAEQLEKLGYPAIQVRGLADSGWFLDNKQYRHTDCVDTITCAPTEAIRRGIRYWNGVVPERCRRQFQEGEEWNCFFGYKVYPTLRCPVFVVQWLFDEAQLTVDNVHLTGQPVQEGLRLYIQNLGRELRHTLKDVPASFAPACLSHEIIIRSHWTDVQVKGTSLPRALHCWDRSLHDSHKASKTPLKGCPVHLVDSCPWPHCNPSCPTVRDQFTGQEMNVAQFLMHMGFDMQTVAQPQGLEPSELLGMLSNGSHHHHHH
Procedure: Binding affinities of certain anti-NOTUM MAbs was determined using a Biacore 3000. In order to obtain meaningful affinity values for binding to multimeric […] NOTUM protein, antibody FAb fragments were generated by digestion of whole IgG with the protease Ficin, followed by removal of undigested IgG and Fc fragments by protein A affinity chromatography. Affinity values for binding of FAbs and whole IgG to human NOTUM corresponded, and their affinity values were in the single to low double digit nM range, as shown in Table 3.

[2] = biological target: T2, Guinea pig NOTUM (guinea pig, UniProt Q6P988 21-496 (human entry)); assay: ELISA
T2 construct: Expressed by transient transfection
T2 chain: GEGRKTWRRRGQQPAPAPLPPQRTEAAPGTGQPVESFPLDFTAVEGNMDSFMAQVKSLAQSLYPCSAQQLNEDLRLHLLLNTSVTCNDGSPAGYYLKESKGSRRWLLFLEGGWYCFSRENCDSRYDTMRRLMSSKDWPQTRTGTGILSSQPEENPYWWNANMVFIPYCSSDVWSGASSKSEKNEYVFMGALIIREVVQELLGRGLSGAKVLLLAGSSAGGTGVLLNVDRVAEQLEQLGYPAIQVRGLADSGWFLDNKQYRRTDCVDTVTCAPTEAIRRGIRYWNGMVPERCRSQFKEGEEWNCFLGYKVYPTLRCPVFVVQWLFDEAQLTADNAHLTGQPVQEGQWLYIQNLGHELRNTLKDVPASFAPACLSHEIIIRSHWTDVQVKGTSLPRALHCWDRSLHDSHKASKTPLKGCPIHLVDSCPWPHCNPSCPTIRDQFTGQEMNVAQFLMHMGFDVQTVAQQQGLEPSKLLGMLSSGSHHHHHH

[3] = biological target: T3, Human NOTUM D141S (human, UniProt Q6P988 20-496); assay: ELISA
T3 construct: Point mutant made by transient transfection
T3 sequence: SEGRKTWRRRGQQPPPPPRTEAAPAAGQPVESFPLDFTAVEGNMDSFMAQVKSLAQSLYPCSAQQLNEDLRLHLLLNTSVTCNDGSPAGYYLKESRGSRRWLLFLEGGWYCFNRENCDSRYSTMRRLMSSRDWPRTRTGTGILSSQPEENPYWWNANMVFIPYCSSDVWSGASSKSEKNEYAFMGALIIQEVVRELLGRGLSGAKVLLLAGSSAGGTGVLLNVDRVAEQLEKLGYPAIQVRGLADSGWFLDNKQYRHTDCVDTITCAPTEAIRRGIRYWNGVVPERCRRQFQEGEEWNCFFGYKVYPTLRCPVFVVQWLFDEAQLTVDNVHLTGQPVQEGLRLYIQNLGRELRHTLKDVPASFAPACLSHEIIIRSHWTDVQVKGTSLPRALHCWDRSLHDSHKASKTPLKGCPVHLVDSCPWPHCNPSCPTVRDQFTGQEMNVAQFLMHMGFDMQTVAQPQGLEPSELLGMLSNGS

Binder	Kd [1] [nM]	kon [1] [M⁻¹ s⁻¹]	binding result [2]	binding result [3]
B1	1.42	257000	binds	no binding
B2			binds	no binding
B3			binds	no binding
